Article PMC6644155

Target: T1, Thyroid hormone receptor beta (THRβ), recombinant (Homo sapiens, UniProt P10828 1-461)
T1 sequence: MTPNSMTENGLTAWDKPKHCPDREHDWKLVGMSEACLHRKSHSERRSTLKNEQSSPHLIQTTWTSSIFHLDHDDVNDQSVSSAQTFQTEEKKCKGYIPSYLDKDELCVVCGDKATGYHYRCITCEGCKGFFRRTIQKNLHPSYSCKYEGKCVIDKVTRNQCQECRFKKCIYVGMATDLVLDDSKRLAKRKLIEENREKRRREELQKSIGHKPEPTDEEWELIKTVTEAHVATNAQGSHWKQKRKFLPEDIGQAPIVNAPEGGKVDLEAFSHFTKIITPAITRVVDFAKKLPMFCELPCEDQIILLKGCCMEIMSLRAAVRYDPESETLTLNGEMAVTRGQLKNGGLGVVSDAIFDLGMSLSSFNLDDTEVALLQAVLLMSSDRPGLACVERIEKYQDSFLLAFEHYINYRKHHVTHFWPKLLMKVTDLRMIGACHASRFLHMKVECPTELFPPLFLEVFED
Experiment: EMSA

B1: rs717-G (dsDNA)
DNA 1: CCCGGTCAGGACCACGGTGACCATGAGGGCG
DNA 2: CGCCCTCATGGTCACCGTGGTCCTGACCGGG
Does B1 bind?
Result: binds
